Holding throughout (test): other fluorescence titration
Assay [1] deals with budding yeast profilin ScPFY (wild type) (Saccharomyces cerevisiae) (UniProt P07274).
For assay [2], the target named is ScPFY(9-Mut) (Saccharomyces cerevisiae) (UniProt P07274).
Assay [3] deals with fission yeast profilin SpPRF (S. pombe) (UniProt P39825).
Assay [4] concerns the target T1, Cdc12(FH1) (fission yeast, UniProt Q10059 740-972).
T1 sequence: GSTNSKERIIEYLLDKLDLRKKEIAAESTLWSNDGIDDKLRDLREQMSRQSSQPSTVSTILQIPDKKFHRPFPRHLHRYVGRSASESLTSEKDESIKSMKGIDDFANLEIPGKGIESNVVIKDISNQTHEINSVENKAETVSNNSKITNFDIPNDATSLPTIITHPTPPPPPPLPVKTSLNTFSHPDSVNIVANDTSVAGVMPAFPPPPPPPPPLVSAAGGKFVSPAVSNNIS

Sequence of fission yeast profilin SpPRF (S. pombe) (P39825 whole entry): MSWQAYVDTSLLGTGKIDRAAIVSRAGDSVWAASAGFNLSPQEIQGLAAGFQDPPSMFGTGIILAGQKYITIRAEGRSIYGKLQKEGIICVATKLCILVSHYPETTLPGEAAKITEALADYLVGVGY

As to poly-L-proline (peptide), the Kd in assay [1] is 224 µM; in assay [2], 195 µM; in assay [3] it was 59 µM.

B1: Cdc12(FH1) (domain or fragment)
chain: GSTNSKERIIEYLLDKLDLRKKEIAAESTLWSNDGIDDKLRDLREQMSRQSSQPSTVSTILQIPDKKFHRPFPRHLHRYVGRSASESLTSEKDESIKSMKGIDDFANLEIPGKGIESNVVIKDISNQTHEINSVENKAETVSNNSKITNFDIPNDATSLPTIITHPTPPPPPPLPVKTSLNTFSHPDSVNIVANDTSVAGVMPAFPPPPPPPPPLVSAAGGKFVSPAVSNNIS
On to B1, for which, in assay [2], the dissociation constant Kd worked out at 22.7 µM. That is a double-digit micromolar value.

B2: budding yeast profilin ScPFY (wild type) (natural protein)
chain: MSWQAYTDNLIGTGKVDKAVIYSRAGDAVWATSGGLSLQPNEIGEIVQGFDNPAGLQSNGLHIQGQKFMLLRADDRSIYGRHDAEGVVCVRTKQTVIIAHYPPTVQAGEATKIVEQLADYLIGVQY
In turn, B2 had a Kd in assay [4] of 24.7 µM.

In general, Kd refers to the equilibrium constant for the complex coming apart. Higher therefore signals lower affinity.
